Consider 91 sequences from the supplement of paper PMC9112550, “Optimization of the antimicrobial peptide Bac7 by deep mutational scanning” (BMC Biology, 2022).
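Also: peptides expressed intracellularly from a pBAD plasmid library in pooled LB shake-flask culture, induced with 0.3% L-arabinose, DNA abundance read by NGS, three biological replicates, DESeq2 with apeglm shrinkage.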

For the data set, the system named is Escherichia coli TOP10. Kind of data set: shrunken log2 fold change of peptide-encoding DNA abundance (4.5 h post-induction vs induction); higher = less antimicrobial activity (less host growth inhibition). Particulars: time post-induction: 4.5 h; library: site-saturation at positions 5, 18, 19, 20.
On to RRIRRRPPRLPRPRPRPAERPRP, for which the “shrunken log2 fold change” value was determined as 0.606.

On to RRIRWRPPRLPRPRPRPPENPRP, for which the “shrunken log2 fold change” value worked out at 0.0933.

With RRIRHRPPRLPRPRPRPGYSPRP, the “shrunken log2 fold change” value was 0.0976.

Take RRIRFRPPRLPRPRPRPFMQPRP: the “shrunken log2 fold change” value is -0.675.

Consider RRIRKRPPRLPRPRPRPTQIPRP, for which the “shrunken log2 fold change” value is 0.412.

Regarding RRIRDRPPRLPRPRPRPDEIPRP, the “shrunken log2 fold change” value worked out at 0.0508.

For RRIRRRPPRLPRPRPRPFHFPRP, the “shrunken log2 fold change” value is -0.413.

On to RRIRCRPPRLPRPRPRPESTPRP, for which the “shrunken log2 fold change” value was 0.0373.

For the sequence RRIRVRPPRLPRPRPRPIIHPRP, the “shrunken log2 fold change” value is -0.809.

As to RRIRRRPPRLPRPRPRPWETPRP, the “shrunken log2 fold change” value was 0.00928.

For RRIRWRPPRLPRPRPRPRFNPRP, the “shrunken log2 fold change” value came out at 0.0235.

Consider RRIRHRPPRLPRPRPRPETIPRP, for which the “shrunken log2 fold change” value is -0.0239.

Take RRIRCRPPRLPRPRPRPGFEPRP: the “shrunken log2 fold change” value turned out to be 0.244.

Take RRIRIRPPRLPRPRPRPDVRPRP: the “shrunken log2 fold change” value stood at 0.0768.

RRIRCRPPRLPRPRPRPALLPRP: the “shrunken log2 fold change” value was 0.292.

In the case of RRIRFRPPRLPRPRPRPAHLPRP, the “shrunken log2 fold change” value was -0.0824.

As for RRIRMRPPRLPRPRPRPRTPPRP, the “shrunken log2 fold change” value turned out to be 1.26.

Regarding RRIRNRPPRLPRPRPRPHMGPRP, the “shrunken log2 fold change” value was -0.133.

Turning to RRIRERPPRLPRPRPRPGMIPRP, the “shrunken log2 fold change” value was -0.439.

On to RRIRHRPPRLPRPRPRPDGNPRP, for which the “shrunken log2 fold change” value is -0.105.

In the case of RRIRWRPPRLPRPRPRPATAPRP, the “shrunken log2 fold change” value came to 0.983.

RRIRWRPPRLPRPRPRPYYKPRP: the “shrunken log2 fold change” value was -0.823.

With RRIRARPPRLPRPRPRPEKLPRP, the “shrunken log2 fold change” value came to 0.758.

Consider RRIRKRPPRLPRPRPRPDQTPRP, for which the “shrunken log2 fold change” value was -0.0185.

RRIRMRPPRLPRPRPRPSCCPRP: the “shrunken log2 fold change” value turned out to be 0.291.

On to RRIRPRPPRLPRPRPRPLVWPRP, for which the “shrunken log2 fold change” value turned out to be 0.412.

For RRIRARPPRLPRPRPRPEQHPRP, the “shrunken log2 fold change” value came out at 0.562.

Regarding RRIRVRPPRLPRPRPRPGVYPRP, the “shrunken log2 fold change” value is -0.0713.

Take RRIRCRPPRLPRPRPRPQPMPRP: the “shrunken log2 fold change” value was -0.0366.

In the case of RRIRNRPPRLPRPRPRPQRAPRP, the “shrunken log2 fold change” value is 0.0993.

As for RRIRLRPPRLPRPRPRPKFHPRP, the “shrunken log2 fold change” value was -0.174.

Regarding RRIRARPPRLPRPRPRPIRVPRP, the “shrunken log2 fold change” value came out at 0.125.

In the case of RRIRVRPPRLPRPRPRPWPDPRP, the “shrunken log2 fold change” value came out at 0.033.

For the sequence RRIRHRPPRLPRPRPRPAWFPRP, the “shrunken log2 fold change” value came out at 0.211.

RRIRWRPPRLPRPRPRPRTQPRP: the “shrunken log2 fold change” value worked out at 0.276.

For RRIRMRPPRLPRPRPRPHMTPRP, the “shrunken log2 fold change” value was 0.342.

In the case of RRIRDRPPRLPRPRPRPTGSPRP, the “shrunken log2 fold change” value was 0.0325.

RRIRWRPPRLPRPRPRPQWAPRP: the “shrunken log2 fold change” value amounted to 0.829.

With RRIRKRPPRLPRPRPRPISMPRP, the “shrunken log2 fold change” value is -0.00992.

RRIRMRPPRLPRPRPRPHNQPRP: the “shrunken log2 fold change” value turned out to be 0.177.

With RRIRLRPPRLPRPRPRPMAYPRP, the “shrunken log2 fold change” value was -0.0987.

In the case of RRIRTRPPRLPRPRPRPEANPRP, the “shrunken log2 fold change” value is -0.0399.

Consider RRIRGRPPRLPRPRPRPHGTPRP, for which the “shrunken log2 fold change” value was found to be 0.331.

With RRIRARPPRLPRPRPRPGPDPRP, the “shrunken log2 fold change” value amounted to 0.455.

On to RRIRMRPPRLPRPRPRPSRRPRP, for which the “shrunken log2 fold change” value came out at 0.189.

Consider RRIRQRPPRLPRPRPRPCPVPRP, for which the “shrunken log2 fold change” value was -0.477.

As to RRIRPRPPRLPRPRPRPVFQPRP, the “shrunken log2 fold change” value is 0.315.

On to RRIRDRPPRLPRPRPRPRGCPRP, for which the “shrunken log2 fold change” value came to 0.786.

On to RRIRRRPPRLPRPRPRPMNYPRP, for which the “shrunken log2 fold change” value was -0.0341.

Regarding RRIRRRPPRLPRPRPRPGHVPRP, the “shrunken log2 fold change” value is -0.00681.

Regarding RRIRHRPPRLPRPRPRPYFVPRP, the “shrunken log2 fold change” value was -0.84.

Consider RRIRIRPPRLPRPRPRPCHTPRP, for which the “shrunken log2 fold change” value was -0.0495.

For RRIRHRPPRLPRPRPRPQQHPRP, the “shrunken log2 fold change” value is -0.384.

With RRIRTRPPRLPRPRPRPFGYPRP, the “shrunken log2 fold change” value stood at 0.0679.

Regarding RRIRQRPPRLPRPRPRPCCNPRP, the “shrunken log2 fold change” value was -0.0838.

Consider RRIRARPPRLPRPRPRPTPHPRP, for which the “shrunken log2 fold change” value stood at 0.598.

With RRIRSRPPRLPRPRPRPSQNPRP, the “shrunken log2 fold change” value was -0.321.

For the sequence RRIRTRPPRLPRPRPRPYPPPRP, the “shrunken log2 fold change” value is -0.203.

As to RRIRWRPPRLPRPRPRPHSLPRP, the “shrunken log2 fold change” value is -0.262.

Turning to RRIRIRPPRLPRPRPRPPRHPRP, the “shrunken log2 fold change” value came out at 0.166.

In the case of RRIRYRPPRLPRPRPRPASAPRP, the “shrunken log2 fold change” value was 0.0949.

On to RRIRRRPPRLPRPRPRPLRPPRP, for which the “shrunken log2 fold change” value is 1.18.

On to RRIRLRPPRLPRPRPRPFNAPRP, for which the “shrunken log2 fold change” value was -0.154.

In the case of RRIRSRPPRLPRPRPRPDVFPRP, the “shrunken log2 fold change” value was -0.098.

Regarding RRIRIRPPRLPRPRPRPKAWPRP, the “shrunken log2 fold change” value came to 0.0719.

RRIRLRPPRLPRPRPRPKSVPRP: the “shrunken log2 fold change” value was determined as 0.0155.

With RRIRARPPRLPRPRPRPHLQPRP, the “shrunken log2 fold change” value came out at 0.439.

Turning to RRIRFRPPRLPRPRPRPHNDPRP, the “shrunken log2 fold change” value is -0.81.

Turning to RRIRLRPPRLPRPRPRPCSEPRP, the “shrunken log2 fold change” value came out at 0.0739.

On to RRIRSRPPRLPRPRPRPCDRPRP, for which the “shrunken log2 fold change” value was -0.00911.

Turning to RRIRDRPPRLPRPRPRPVPSPRP, the “shrunken log2 fold change” value worked out at 0.314.

In the case of RRIRARPPRLPRPRPRPKTRPRP, the “shrunken log2 fold change” value worked out at 0.689.

As for RRIRWRPPRLPRPRPRPNSDPRP, the “shrunken log2 fold change” value is -0.258.

In the case of RRIRFRPPRLPRPRPRPWRMPRP, the “shrunken log2 fold change” value is -0.166.

As to RRIRLRPPRLPRPRPRPARLPRP, the “shrunken log2 fold change” value stood at 0.647.

For the sequence RRIRWRPPRLPRPRPRPTDQPRP, the “shrunken log2 fold change” value was 0.203.

For the sequence RRIRDRPPRLPRPRPRPIQNPRP, the “shrunken log2 fold change” value was determined as 0.0608.

Regarding RRIRRRPPRLPRPRPRPPRTPRP, the “shrunken log2 fold change” value was determined as 1.16.

Consider RRIRWRPPRLPRPRPRPEYEPRP, for which the “shrunken log2 fold change” value was -0.0434.

With RRIRDRPPRLPRPRPRPNIDPRP, the “shrunken log2 fold change” value amounted to 0.068.

Turning to RRIRTRPPRLPRPRPRPNVHPRP, the “shrunken log2 fold change” value was -0.637.

As for RRIRLRPPRLPRPRPRPMHPPRP, the “shrunken log2 fold change” value is -0.0318.

Take RRIRIRPPRLPRPRPRPLEFPRP: the “shrunken log2 fold change” value was -0.196.

For RRIRQRPPRLPRPRPRPDWEPRP, the “shrunken log2 fold change” value was determined as 0.0238.

Turning to RRIRARPPRLPRPRPRPSEDPRP, the “shrunken log2 fold change” value was 0.396.

Turning to RRIRNRPPRLPRPRPRPDETPRP, the “shrunken log2 fold change” value is -0.00208.

Consider RRIRLRPPRLPRPRPRPVALPRP, for which the “shrunken log2 fold change” value was 0.0145.

Take RRIRQRPPRLPRPRPRPQPLPRP: the “shrunken log2 fold change” value was -0.0826.

Take RRIRFRPPRLPRPRPRPLCEPRP: the “shrunken log2 fold change” value is -0.166.

For RRIRRRPPRLPRPRPRPSRMPRP, the “shrunken log2 fold change” value was 0.0176.

Turning to RRIRHRPPRLPRPRPRPLHIPRP, the “shrunken log2 fold change” value is -0.453.
